According to US20120121557A1:

Molecular target: ErbB4 on primary adult rat ventricular cardiomyocytes (rat) (UniProt Q62956)
Experiment: cell-based or functional assay

Sequence of UniProt Q62956 (Q62956 26-1308): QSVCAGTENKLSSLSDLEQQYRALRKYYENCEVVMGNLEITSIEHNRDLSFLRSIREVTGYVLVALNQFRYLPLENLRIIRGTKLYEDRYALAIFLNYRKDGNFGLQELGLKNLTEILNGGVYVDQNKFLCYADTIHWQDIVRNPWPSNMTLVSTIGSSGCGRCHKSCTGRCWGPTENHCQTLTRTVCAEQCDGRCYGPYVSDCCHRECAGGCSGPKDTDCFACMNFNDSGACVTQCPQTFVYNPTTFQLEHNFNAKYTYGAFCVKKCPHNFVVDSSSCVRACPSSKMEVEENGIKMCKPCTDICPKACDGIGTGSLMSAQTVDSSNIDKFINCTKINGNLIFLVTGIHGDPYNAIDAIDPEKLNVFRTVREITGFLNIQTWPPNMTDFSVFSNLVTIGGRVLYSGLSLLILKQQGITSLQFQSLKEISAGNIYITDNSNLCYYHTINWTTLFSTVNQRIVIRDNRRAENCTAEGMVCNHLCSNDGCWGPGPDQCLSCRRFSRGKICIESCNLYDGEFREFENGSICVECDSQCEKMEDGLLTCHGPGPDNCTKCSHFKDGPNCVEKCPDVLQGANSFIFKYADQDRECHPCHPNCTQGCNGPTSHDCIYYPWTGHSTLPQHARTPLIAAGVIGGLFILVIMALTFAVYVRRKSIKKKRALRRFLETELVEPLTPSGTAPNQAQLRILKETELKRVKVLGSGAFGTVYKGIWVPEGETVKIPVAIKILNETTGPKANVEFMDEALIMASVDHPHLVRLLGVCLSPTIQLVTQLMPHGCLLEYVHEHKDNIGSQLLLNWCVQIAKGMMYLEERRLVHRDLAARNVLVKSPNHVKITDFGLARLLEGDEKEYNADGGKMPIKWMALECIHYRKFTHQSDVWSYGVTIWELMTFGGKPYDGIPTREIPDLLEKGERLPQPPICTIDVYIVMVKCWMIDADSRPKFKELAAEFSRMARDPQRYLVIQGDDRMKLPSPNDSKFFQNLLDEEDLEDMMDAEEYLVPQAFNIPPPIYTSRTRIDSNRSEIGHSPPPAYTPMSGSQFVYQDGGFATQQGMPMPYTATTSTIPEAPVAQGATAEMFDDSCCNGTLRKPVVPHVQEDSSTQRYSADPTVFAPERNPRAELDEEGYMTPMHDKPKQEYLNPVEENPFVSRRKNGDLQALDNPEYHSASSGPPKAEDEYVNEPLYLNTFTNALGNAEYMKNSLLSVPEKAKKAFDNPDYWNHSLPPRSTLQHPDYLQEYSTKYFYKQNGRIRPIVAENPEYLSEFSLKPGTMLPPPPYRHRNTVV

Substance: NRG1 (EGF-like domain, amino acids 176-246), R&D Systems (from UniProt Q02297-11 121-191) (ligand)
- half-maximal stimulation EC50 of NRG1-induced DNA synthesis (BrdU uptake) in primary adult rat ventricular cardiomyocytes: 0.04 nM
